B1: GST-REV3L 1847–1898 (domain or fragment, human, UniProt O60673 1847-1898, looked up)
chain: MLTPTPDSSPRSTSSPSQSKNGSFTPRTANILKPLMSPPSREEIMATLLDHD
notes: Cloned into pGEX6P-1 (GE Healthcare); also called positive control; source: E. coli, purified
B2: GST-REV3L 1974–2025 (domain or fragment, human, UniProt O60673 1974-2025, looked up)
chain: GVVNKGSSNSPKMVEDKKIVIMPCKCAPSRQLVQVWLQAKEEYERSKKLPKT
notes: Cloned into pGEX6P-1 (GE Healthcare); source: E. coli, purified

Target: T1, His-REV7 (human, UniProt Q9UI95 1-211)
T1 construct: REV7 (MAD2L2), human; amplified from REV7 cDNA with primers from the start codon to the stop codon, cloned into pETDuet-1; Cloned into pETDuet-1 (SalI-NotI); also called His-REV7 fusion protein; source: E. coli, purified
T1 sequence (Q9UI95 whole entry, the tested form may be a part): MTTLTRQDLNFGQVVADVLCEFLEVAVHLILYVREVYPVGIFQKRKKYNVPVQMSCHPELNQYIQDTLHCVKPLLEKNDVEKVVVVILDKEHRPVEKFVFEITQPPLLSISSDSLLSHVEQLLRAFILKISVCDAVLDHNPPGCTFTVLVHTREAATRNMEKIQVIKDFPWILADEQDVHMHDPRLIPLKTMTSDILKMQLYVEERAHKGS
Assay: pull-down; GST-fusion REV3L fragment, His-REV7 and Glutathione-Sepharose 4B beads, 4°C for 4 h in 500 μl of 0.1B; blot with anti-His and anti-GST
Conditions: both partners purified

Binder | binding result
B1 | binds
B2 | binds
